B1: RAB17 DRE mutant fragment (dsDNA)
DNA 1: TAAATTCAGCCTGTTTTTTCGCCTGCATTGAATA
DNA 2: TATTCAATGCAGGCGAAAAAACAGGCTGAATTTA
B2: RAB17 promoter DRE fragment (dsDNA)
DNA 1: TAAATTCAGCCTGACCGACCGCCTGCATTGAATA
DNA 2: TATTCAATGCAGGCGGTCGGTCAGGCTGAATTTA

Tests used:
Details in all cases: tags: 20 aa N-terminal tag incl; 6xHis (pET28)
ZmSRTF18 (SPL VAR4) [1] = biological target: ZmSRTF18 (SPL VAR4) (Zea mays); assay: EMSA; DTT, 300 mM KCl, salmon DNA; binding to DRE stated specific versus this mutant
Procedure: (§1) In gel-shift assays, also known as electrophoretic mobility shift assays (EMSA), DNA with bound protein will traverse the gel more slowly than DNA without bound protein. Thus, gel shift assays indicate whether a protein binds to a specific DNA fragment. The gel shift assays of FIG. 6 were performed using the Molecular Probes™ EMSA Kit (E33075), which provides background information, materials, and methods for gel shift experiments. The assays were done in the presence or in the absence of DTT (dithiothreitol), as it is not certain which condition most accurately reflects the in vivo condition. DNA was stained with SYBR® Green according to the manufacturer's protocol.
(§2) To determine whether DNA binding was specific, and to examine binding of the less severely truncated proteins ZmSRTF18-del (ALT5) (SEQ ID NO: 26) and ZmSRTF18-del (ALT6) (SEQ ID NO: 27), further gel shift experiments were performed in the presence of DTT with the same 34 bp DNA fragment, or with the corresponding fragment that had the DRE element ACCGAC mutated to TTTTTT. Conditions were also optimized to reduce nonspecific binding by adding 300 mM KCl and sheared salmon DNA.

ZmSRTF18-del (ALT6) [2] = biological target: ZmSRTF18-del (ALT6) (Zea mays); assay: as above
Sequence of ZmSRTF18-del (ALT6) (Zea mays) (chain, as listed by the source): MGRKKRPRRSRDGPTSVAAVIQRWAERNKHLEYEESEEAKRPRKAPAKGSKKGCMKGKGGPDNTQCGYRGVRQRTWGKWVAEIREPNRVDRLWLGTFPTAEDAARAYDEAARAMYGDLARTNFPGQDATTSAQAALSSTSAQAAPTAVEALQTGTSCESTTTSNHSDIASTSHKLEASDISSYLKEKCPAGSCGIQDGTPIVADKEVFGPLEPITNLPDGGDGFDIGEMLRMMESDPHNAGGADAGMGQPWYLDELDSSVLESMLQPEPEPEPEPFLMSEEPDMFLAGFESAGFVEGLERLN
Procedure: as §1, §2

[3] = biological target: ZmSRTF18 (SPL VAR4) (C71S) (Zea mays, C71S); assay: as above
Sequence of ZmSRTF18 (SPL VAR4) (C71S) (Zea mays, C71S) (chain, as listed by the source C71S | C71S C71S): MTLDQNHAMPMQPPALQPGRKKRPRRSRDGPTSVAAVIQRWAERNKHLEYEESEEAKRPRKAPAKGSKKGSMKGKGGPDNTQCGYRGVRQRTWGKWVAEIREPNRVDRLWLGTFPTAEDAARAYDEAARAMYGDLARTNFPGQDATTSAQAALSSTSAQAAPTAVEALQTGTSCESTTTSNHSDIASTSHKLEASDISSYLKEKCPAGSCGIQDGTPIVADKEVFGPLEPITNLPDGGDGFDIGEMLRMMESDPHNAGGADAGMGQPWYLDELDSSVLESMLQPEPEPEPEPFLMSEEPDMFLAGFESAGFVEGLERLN
Procedure: as §1, §2

ZmSRTF18-del (ALT6) [4] = biological target: ZmSRTF18-del (ALT6) (Zea mays); assay: EMSA; DTT, 300 mM KCl, sheared salmon DNA; strong specific binding
Procedure: as §1, §2

ZmSRTF18 (SPL VAR4) [5] = biological target: ZmSRTF18 (SPL VAR4) (Zea mays); assay: EMSA; with or without DTT; strong and specific also with 300 mM KCl and salmon DNA
Procedure: as §1, §2

[6] = biological target: ZmSRTF18 (SPL VAR4) (C71S) (Zea mays, C71S); assay: as above
Procedure: as §1, §2

ZmSRTF18-del (ALT2) = ZmSRTF18-del (ALT2) (Zea mays); assay: EMSA; with or without DTT; obvious gel shift
Sequence of ZmSRTF18-del (ALT2) (Zea mays) (chain, as listed by the source): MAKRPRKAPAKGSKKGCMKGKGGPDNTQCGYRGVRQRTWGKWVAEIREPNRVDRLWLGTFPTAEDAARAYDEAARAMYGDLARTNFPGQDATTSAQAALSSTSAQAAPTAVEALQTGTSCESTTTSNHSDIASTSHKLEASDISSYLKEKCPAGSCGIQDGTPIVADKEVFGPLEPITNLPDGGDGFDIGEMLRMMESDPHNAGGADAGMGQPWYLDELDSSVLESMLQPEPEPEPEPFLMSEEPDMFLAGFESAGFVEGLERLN
Procedure: as §1, §2

ZmSRTF18-del = ZmSRTF18-del (Zea mays); assay: EMSA; no DTT; did not appear to bind
Sequence of ZmSRTF18-del (Zea mays) (chain, as listed by the source): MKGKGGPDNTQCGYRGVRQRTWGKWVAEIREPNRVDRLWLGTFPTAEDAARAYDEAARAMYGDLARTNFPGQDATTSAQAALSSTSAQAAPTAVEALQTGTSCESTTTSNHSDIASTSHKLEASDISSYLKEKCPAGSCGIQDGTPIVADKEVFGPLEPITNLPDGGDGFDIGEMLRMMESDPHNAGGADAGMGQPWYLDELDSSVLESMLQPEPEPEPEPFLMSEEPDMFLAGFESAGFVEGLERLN
Procedure: as §1

Sequence of ZmSRTF18 (SPL VAR4) (Zea mays) (chain, as listed by the source): as the sequence (chain, as listed by the source C71S | C71S C71S) above, with S71C counted along it

Row | Binder | binding result (ZmSRTF18 (SPL VAR4) [1]) | binding result (ZmSRTF18-del (ALT6) [2]) | binding result [3] | binding result (ZmSRTF18-del (ALT6) [4]) | binding result (ZmSRTF18 (SPL VAR4) [5]) | binding result [6] | binding result (ZmSRTF18-del (ALT2)) | binding result (ZmSRTF18-del)
1 | B1 | no binding | no binding | no binding |  |  |  |  | 
2 | B2 |  |  |  | binds | binds | binds | binds | no binding

Source: patent US20160024513, “MAIZE STRESS RELATED TRANSCRIPTION FACTOR 18 AND USES THEREOF” (PIONEER HI-BRED INTERNATIONAL INC., published 2016)
